Assay results as given in paper PMC7555870, “Isolation, Evaluation, and Identification of Angiotensin I-Converting Enzyme Inhibitory Peptides from Game Meat” (Foods, 2020).
Like-named read-outs stand apart in the source and are kept apart here. Marks after values point to notes of the source that are not given here. Where no end group is shown, it is not given here. [ ]: non-standard residue; d: D form.

How the values were obtained:
ACE = conditions: previously reported peptides; cited from earlier work
Text: The potent ACE inhibitory peptides are generally short chains of 3–6 amino acids, with a Ser, Leu, or Thr at the C-terminal, which plays an important role in this activity. The ACE inhibitory peptides identified in this study, except for IKEVTER, seem to be of a larger size than those of inhibitory peptides described in previous reports. ACE inhibitory peptides have been previously reported from meat and seafood vertebrate specimens, and their IC50 values have been reported.

[1] = biological target: T1, ACE, a dipeptidyl carboxypeptidase (EC 3.4.15.1) extracted from rabbit lung (Oryctolagus cuniculus, UniProt P12822); experiment: ACE inhibitory activity assay, modified Cheung method (96-well plate, HHL, OPA fluorescence); type: biochemical; conditions: synthesized peptides identified from digested venison; mean ± SD of three repeated experiments; ND = not detectable
T1 construct: extracted from rabbit lung; purchased Sigma Chemical Co. (St. Louis, MO, USA); host or cells: rabbit lung tissue
T1 sequence (P12822 34-1310): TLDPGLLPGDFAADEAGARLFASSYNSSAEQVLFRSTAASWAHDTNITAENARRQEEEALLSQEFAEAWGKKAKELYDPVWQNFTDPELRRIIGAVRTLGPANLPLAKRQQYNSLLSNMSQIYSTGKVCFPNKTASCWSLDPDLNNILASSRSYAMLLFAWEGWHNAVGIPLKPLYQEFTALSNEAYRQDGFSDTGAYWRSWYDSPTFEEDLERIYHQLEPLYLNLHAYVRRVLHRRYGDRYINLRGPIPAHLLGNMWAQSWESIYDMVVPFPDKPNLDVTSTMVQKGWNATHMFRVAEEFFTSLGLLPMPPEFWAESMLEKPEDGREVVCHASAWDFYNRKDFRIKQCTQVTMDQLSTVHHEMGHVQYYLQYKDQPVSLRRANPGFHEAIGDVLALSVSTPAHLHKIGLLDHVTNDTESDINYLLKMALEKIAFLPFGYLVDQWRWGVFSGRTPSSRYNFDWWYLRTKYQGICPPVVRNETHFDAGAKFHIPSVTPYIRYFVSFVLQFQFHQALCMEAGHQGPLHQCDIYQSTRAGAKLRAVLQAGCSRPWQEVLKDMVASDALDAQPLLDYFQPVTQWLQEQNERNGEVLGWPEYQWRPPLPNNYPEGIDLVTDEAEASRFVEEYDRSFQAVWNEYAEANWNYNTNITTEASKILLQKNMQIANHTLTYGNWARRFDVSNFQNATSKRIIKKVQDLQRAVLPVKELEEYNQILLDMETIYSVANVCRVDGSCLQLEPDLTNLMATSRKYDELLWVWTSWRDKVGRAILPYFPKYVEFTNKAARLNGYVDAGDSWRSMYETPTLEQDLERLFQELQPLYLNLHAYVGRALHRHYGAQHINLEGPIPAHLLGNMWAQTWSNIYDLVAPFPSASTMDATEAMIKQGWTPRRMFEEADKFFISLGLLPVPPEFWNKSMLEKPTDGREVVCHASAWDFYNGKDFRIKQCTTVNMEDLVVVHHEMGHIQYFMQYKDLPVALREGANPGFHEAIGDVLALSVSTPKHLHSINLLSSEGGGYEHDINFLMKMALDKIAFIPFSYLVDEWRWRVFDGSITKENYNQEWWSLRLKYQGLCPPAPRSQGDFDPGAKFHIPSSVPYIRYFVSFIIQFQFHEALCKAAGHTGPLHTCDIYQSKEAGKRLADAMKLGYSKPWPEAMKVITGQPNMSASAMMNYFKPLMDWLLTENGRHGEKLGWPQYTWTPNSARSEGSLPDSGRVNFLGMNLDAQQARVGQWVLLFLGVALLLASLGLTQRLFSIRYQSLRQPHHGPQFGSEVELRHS
Description: The digested samples were centrifuged at 10,000× g for 15 min, and the supernatants were subjected to an ACE inhibitory assay. ACE inhibitory activity was measured using a previously reported method. ACE, a dipeptidyl carboxypeptidase (EC 3.4.15.1) extracted from rabbit lung, was obtained from Sigma Chemical Co. (St. Louis, MO, USA). Hippuryl-L-histidyl-L-leucine (HHL) (Nacalai Tesque) was used as the synthetic substrate. A 40 µL aliquot of each sample solution was added to 100 µL of borate buffer (containing 0.3 M NaCl, 5 mM HHL, pH 8.3) and incubated at 37 °C for 3 min. Then, 20 µL ACE solution (0.1 U mL^−1) was added to each sample solution, and the reaction mixture was incubated at 37 °C for 30 min. After that, the reaction was terminated using 250 µL of 1 M HCl, and hippuric acid was extracted by adding 1.5 mL of ethyl acetate and shaking. Eventually, mixtures were centrifuged at 1750× g for 10 min, 1 mL of supernatant was transferred into a test tube, and ethyl acetate was eliminated by heat evaporation at 95 °C. The precipitate was re-dissolved in 2 mL of deionized water and measured spectrophotometrically at 228 nm, using a UV-1800 spectrophotometer (Shimadzu, Kyoto, Japan). For the analysis of samples fractionated by reversed-phase chromatography, the synthetic peptides were assayed using the modified method reported by Cheung, et al.. Briefly, 50 µL of sample solution, 100 µL of the ACE 0.01 U/mL, and 20 µL of 25 mM HHL were mixed in a 96-well plate and incubated at 37 °C for 40 min. Subsequently, 100 µL of 1 M NaOH, 10 µL 0.2% OPA, and 15 µL 3.6 M phosphoric acid were added, and the fluorescence of samples was measured using the plate-reader POWERSCAN MX (DS Pharma Biomedical Co., Ltd., Osaka, Japan) at an excitation wavelength of 360 nm and emission wavelength of 460 nm. The inhibitory activity (%) was calculated as follows: inhibitory activity (%) = ((Ac – As)/(Ac – Ab)) × 100. Ac is the intensity of the control, as is the intensity of the sample, and Ab is the intensity of the blank. Data are expressed as the 50% inhibitory concentration (IC50) for each sample.

[2] = biological target: T2, angiotensin I-converting enzyme (ACE), a dipeptidyl carboxypeptidase (EC 3.4.15.1) extracted from rabbit lung (rabbit) (UniProt P12822)
T2 sequence: T1 sequence (P12822 34-1310)

DFHING
ACE inhibition IC50 values (ACE): 64.3 µg/mL

GFHI
ACE inhibition IC50 values (ACE): 117 µg/mL

GLSDGEWQ
ACE inhibition IC50 values (ACE): 50.5 µg/mL

IKEVTER [IKEVTER, Isoleucine-Lysine- Glutamic Acid-Valine-Threonine-Glutamic Acid-Arginine]
IC50 [1]: 99 µM

TEAGATVTVK [TEAGATVTVK]
IC50 [1]: 214 µM

VcNYVNWIQQTIAAN (V[code c]NYVNWIQQTIAAN; not fully specified; printed as VcNYVNWIQQTIAAN) [synthesized peptide identified from digested venison; origin Tropomyosin alpha-3 chain]
Ace Inhibitory Activity (IC50) [1]: 358.64 ± 64.71 ^a μg/mL

mQGTLEDQIISANPLLEAFGNAK ([code m]QGTLEDQIISANPLLEAFGNAK; not fully specified; printed as mQGTLEDQIISANPLLEAFGNAK) [synthesized peptide identified from digested venison; origin Myosin-1]
Ace Inhibitory Activity (IC50) [1]: 292.83 ± 38.27 ^a,b μg/mL

TEAGATVTVK […]
ACE inhibitory activity (IC50; hydrolysis of hippuryl-L-histidyl-L-leucine by ACE, OPA fluorescence, 37 °C) [2]: 359 µg/mL | ACE inhibitory activity (IC50; hydrolysis of hippuryl-L-histidyl-L-leucine by ACE, OPA fluorescence, 37 °C) ([2]; record 2): 293 µg/mL | ACE inhibitory activity (IC50; hydrolysis of hippuryl-L-histidyl-L-leucine by ACE, OPA fluorescence, 37 °C) ([2]; record 3): 86.5 µg/mL | ACE inhibitory activity (IC50; hydrolysis of hippuryl-L-histidyl-L-leucine by ACE, OPA fluorescence, 37 °C) ([2]; record 4): 209 µg/mL
